Laboratory results as given in publication PMC11760725.

How the values were obtained:
[1] = target: T1, Reb1 (Saccharomyces cerevisiae) (UniProt P21538); assay: ensemble FRET
T1 sequence: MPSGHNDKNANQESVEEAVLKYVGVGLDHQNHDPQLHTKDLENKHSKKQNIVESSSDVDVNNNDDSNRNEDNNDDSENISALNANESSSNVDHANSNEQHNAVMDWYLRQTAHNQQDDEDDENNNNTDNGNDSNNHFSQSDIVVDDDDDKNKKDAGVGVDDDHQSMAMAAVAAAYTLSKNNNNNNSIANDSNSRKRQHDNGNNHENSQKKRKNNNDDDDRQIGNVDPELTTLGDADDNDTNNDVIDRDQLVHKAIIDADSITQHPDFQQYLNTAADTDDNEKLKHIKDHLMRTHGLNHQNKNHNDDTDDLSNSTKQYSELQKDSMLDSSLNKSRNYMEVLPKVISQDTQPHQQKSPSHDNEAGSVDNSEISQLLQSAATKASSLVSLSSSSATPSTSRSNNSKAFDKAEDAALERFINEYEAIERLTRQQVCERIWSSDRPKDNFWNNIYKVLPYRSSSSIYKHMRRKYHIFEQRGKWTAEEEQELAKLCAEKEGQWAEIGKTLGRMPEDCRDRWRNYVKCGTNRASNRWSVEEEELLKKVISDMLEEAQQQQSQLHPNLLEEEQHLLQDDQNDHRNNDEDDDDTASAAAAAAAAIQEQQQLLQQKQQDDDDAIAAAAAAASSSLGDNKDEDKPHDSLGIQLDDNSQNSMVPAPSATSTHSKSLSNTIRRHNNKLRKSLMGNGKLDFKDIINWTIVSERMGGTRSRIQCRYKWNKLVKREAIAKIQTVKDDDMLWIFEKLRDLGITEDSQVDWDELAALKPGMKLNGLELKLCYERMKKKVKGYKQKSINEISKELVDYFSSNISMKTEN

[2] = target: Cbf1 (Saccharomyces cerevisiae) (UniProt P17106); assay: EMSA
[3] = target: Cbf1 (Saccharomyces cerevisiae) (UniProt P17106); assay: ensemble FRET

Sequence of UniProt P17106 (P17106 whole entry): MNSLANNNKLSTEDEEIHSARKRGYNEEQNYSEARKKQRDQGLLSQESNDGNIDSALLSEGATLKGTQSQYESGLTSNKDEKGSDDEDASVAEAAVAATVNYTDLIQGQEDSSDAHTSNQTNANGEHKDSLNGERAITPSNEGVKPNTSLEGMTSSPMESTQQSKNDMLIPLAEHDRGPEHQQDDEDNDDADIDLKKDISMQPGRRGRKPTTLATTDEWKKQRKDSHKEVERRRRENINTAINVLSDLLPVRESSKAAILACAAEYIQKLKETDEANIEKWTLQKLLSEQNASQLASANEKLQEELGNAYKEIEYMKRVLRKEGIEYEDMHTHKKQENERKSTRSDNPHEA

GCTTTGACCGGGTAACACGAACAGAAAGATGGAGGAGACCAATCAGTCAGTGAATCAGATGCTGATGAAGGCTGGGAAGATATTCCTGTCTACGTTAAAGCCTTTGCAGAGTTTGAATCAAAGAAAAGATTACAAAAAATTCGCCGACAGGAAGAAATAAAAAAGAGGACAGCTTTGGTTTGAAGCAAATATATATTATTGAAAAGC (double strand) [YNN1 Reb1p8 Cy3-proximal 207 bp nucleosome]
K half [1]: 1.5 nM

601 Reb1p8 Cy3-proximal 207 bp nucleosome
K half [1]: 0.75 nM

GCTTTGAGGTCACGTGACCAACAGAAAGATGGAGGAGACCAATCAGTCAGTGAATCAGATGCTGATGAAGGCTGGGAAGATATTCCTGTCTACGTTAAAGCCTTTGCAGAGTTTGAATCAAAGAAAAGATTACAAAAAATTCGCCGACAGGAAGAAATAAAAAAGAGGACAGCTTTGGTTTGAAGCAAATATATATTATTGAAAAGC (double strand) [YNN1 Cbf1p8 nucleosome]
K half [2]: 0.8 nM
K half [3]: 1.5 nM
